Experiment [1] deals with T1, anthrax protective antigen, wild type PA83 (Bacillus anthracis, UniProt P13423 30-764).
T1 construct: mature
In words: SPR (Biacore 3000).

Experiment [2] deals with T1, anthrax protective antigen, wild type …. Description: dilution ELISA on PA-coated plates.
Experiment [3] shares this target. Description: SPR (ProteOn XPR36).
Experiment [4] has the same target. Description: cell-based or functional assay.
The target is the same in experiment [5]. Description: cell-based or functional assay. This is another data set of the same source.
The target is the same in experiment [6].

The term Kd denotes the constant that tells how readily two partners part at equilibrium. Read a low Kd as a tighter complex. For orientation: EC50 means the concentration needed to bring the measured effect to its halfway point. A lower EC50 goes with greater potency. One may read the EC50 (read off the curve) as the concentration needed to bring the measured effect to its halfway point. A low value points to an effect from little substance.

T1 sequence (P13423 30-764): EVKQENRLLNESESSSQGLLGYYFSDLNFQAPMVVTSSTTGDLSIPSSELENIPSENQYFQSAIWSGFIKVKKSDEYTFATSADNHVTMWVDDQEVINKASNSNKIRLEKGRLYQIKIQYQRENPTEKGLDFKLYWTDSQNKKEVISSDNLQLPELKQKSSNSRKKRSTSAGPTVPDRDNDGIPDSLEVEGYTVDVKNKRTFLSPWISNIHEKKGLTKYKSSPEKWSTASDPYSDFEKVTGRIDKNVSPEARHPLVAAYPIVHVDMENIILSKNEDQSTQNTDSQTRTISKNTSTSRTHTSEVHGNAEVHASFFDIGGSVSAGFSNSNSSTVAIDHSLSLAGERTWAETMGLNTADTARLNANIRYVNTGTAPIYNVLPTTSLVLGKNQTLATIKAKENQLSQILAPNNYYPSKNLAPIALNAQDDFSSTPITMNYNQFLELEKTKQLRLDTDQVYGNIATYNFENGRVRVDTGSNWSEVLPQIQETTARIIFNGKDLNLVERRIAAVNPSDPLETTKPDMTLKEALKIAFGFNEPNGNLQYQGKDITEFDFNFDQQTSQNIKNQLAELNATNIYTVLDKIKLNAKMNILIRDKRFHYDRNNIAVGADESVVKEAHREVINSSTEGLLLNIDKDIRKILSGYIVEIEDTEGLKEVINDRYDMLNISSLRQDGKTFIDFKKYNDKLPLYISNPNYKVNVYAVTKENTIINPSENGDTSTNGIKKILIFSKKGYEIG

B1: JKM-A6 (VHH)
VHH: QLQLAETGGGLVQPGGSLRLSCAASGATLDTYIITWFRQAPGKEREAVSCINRSGSTTYSDSVKGRFTISRDNAQKTVYLQMNSLNPEDTAIYYCAADASYRTCGGSWWNWAYWGQGTQVTVSS
B1 yielded a Kd in experiment [1] of 20 nM. Further, the half-maximal effective concentration (EC50) in experiment [2] stood at 0.3 nM.

B2: JKH-A4 (VHH)
VHH: QVQLAETGGGLVQAGGSLRLSCSASGLTFGNYAMGWFRQAPGKEREFVASISRSGSNTWYAEPLKGRFAISRDNDKNALYLQMNSLKPEDTAVYYCAGGSYNSDWWNYMYWGQGTQVTVSS
For B2, the Kd in experiment [1] worked out at 9 nM. This molecule also gave an EC50 in experiment [2] of 0.5 nM.

B3: JKO-H2 (VHH)
VHH: QVQLAESGGGLVQAGGSLRLSCAASGRTFSSYVMGWFRQAPGKEREFVAAISRNGGKTYYADSVKGRFTISRDGTENTVYLQMNSLKPEDTAVYYCAAAVAASAEFVTARSNFYEYWGQGTQVTVSS
notes: also called JKO-H12
In experiment [1], B3 displayed a dissociation constant Kd of 4 nM. For the same molecule, the concentration giving a half-maximal response (EC50) in experiment [2] was 0.6 nM.

B4: JIJ-A12 (VHH)
VHH: QVQLVESGGGLVQPGGSLRLSCAASGIIFSIYTMGWYRQAPGKQRELVAAIPSGPSANATDSVGGRFTITRDNAENTVYLQMNDLKPEDTAVYYCNARRGPGIKNYWGQGTQVTVSS
B4 showed an EC50 in experiment [2] of 2 nM. In experiment [3], this molecule gave a Kd of 45 nM.

B5: JIJ-B8 (VHH)
VHH: SGGGLVQPGGSLSVSCAASGSIARPGAMAWYRQAPGKERELVASITPGGLTNYADSVTGRFTISRDNAKRTVYLQMNSLQPEDTAVYYCHARIIPLGLGSEYRDHWGQGTQVTVSS
Molecule B5 returned an EC50 in experiment [2] of 0.4 nM. In addition, binding in experiment [3] was characterised by a dissociation constant (Kd) of 8 nM.

B6: JKO-B8 (VHH)
VHH: QLQLAESGGGLVQPGGSLRLSCTASGIIFDYYSVDWYRQAPGKERELVATITGDGSPNYADSVKGRFTISRDNAKKTVYLQMNGLKPEETAVYYCHAKRTIGTKSEYWGQGTQVTVSS
Molecule B6 came in with a dissociation constant (Kd) in experiment [1] of 200 nM. The molecule also displayed an EC50 in experiment [2] greater than 100 nM.

B7: JIJ-D3 (VHH)
VHH: QVQLVETGGLVQPGGSLRLSCAASGLTFSSTAMAWFRQAPGKEREFVARISGAGITIYYSDSVKDRFTISRNNVENTVYLQMNSLKTEDTAVYYCAARRNTYTSDYNIPARYPYWGQGTQVTVSS
Consider B7, for which the “IC50 (anthrax lethal toxin neutralization, RAW264.7 macrophages)” value in experiment [4] came to 9 nM. The molecule also showed a concentration giving a half-maximal response (EC50) in experiment [2] of 0.3 nM. This molecule came in with a dissociation constant Kd in experiment [3] of 18 nM.

B8: JIK-B10 (VHH)
VHH: QVQLVETGGGLVQPGGSLRLSCAASGFTFSSYRMSWYRQAAGKERDVVATITANGVPTGYADSVMGRFTISRDNAKNTVYLEMNSLNPEDTAVYYCNAPRLHTSVGYWGQGTQVTVSS
On to B8, for which, in experiment [4], the “IC50 (anthrax lethal toxin neutralization, RAW264.7 macrophages)” value worked out at 8 nM. Moreover, in experiment [2], it took 0.2 nM to reach a half-maximal effect (EC50). For the same molecule, the Kd in experiment [3] came to 9 nM.

B9: JIJ-E9 (VHH)
VHH: QVQLVETGGLVQPGGSLRLSCAASRSTTATIYSMNWYRQAPGKQRELVAGMTSDGQTNYATSVKGRFTISRDNAKNTVYLLMNSLKLEDTAVYYCYVKPWRLQGWDYWGQGTQVTVSS
As to B9, the “IC50 (anthrax lethal toxin neutralization, RAW264.7 macrophages)” value in experiment [4] was found to be 30 nM. Besides, in experiment [2], a half-maximal response (EC50) required 0.4 nM. In experiment [3], the Kd was determined as 12 nM.

B10: JKH-C7 (VHH)
VHH: VQLVESGGGGLVQAGGSLRLSCAASGRTFSGYAMGWFRQAPGKEREFVADISWSGHNTYYGDSVKGRFTISRDTAKNTVYLQMNSLKPEDTAVYYCAAEGARTHLSDSYYFPGLWAEPPVGYWGQGTQVTVSS
notes: also called JHK-C7
Regarding B10, the “IC50 (anthrax lethal toxin neutralization, RAW264.7 macrophages)” value in experiment [4] turned out to be 5 nM. Also, the Kd in experiment [1] is 7 nM. In experiment [2], this molecule gave a 50% effective concentration (EC50) of 2 nM. Further, the “IC50 (read off the curve)” value in experiment [5] was roughly 4 nM. Also, the “EC50 (read off the curve)” value in experiment [6] is roughly 2 nM.

B11: JIK-B8 (VHH)
VHH: SGGGLVQPGGSLGLSCVVASERSINNYGMGWYRQAPGKQRELVAQISSGGTTNYADSVEGRFTISRDNVKKMVHLQVNSLKPEDTAVYYCNSLLRTFSWGQGTQVTVSS
As to B11, the “IC50 (anthrax lethal toxin neutralization, RAW264.7 macrophages)” value in experiment [4] came to 1 nM. This molecule also returned a concentration giving a half-maximal response (EC50) in experiment [2] of 0.2 nM. Moreover, the “IC50 (read off the curve)” value in experiment [5] was roughly 1 nM. In experiment [3], the dissociation constant Kd was determined as 0.13 nM.

B12: JKO-E12 (VHH)
VHH: QVQLAETGGGLVQAGGSLRLSCLASRMSFSRRPMAWYRQAPGKQRERVATISSFGDTTNYTDSVEGRFTISRDNAKNTMYLQMNSLKPDDTAVYYCNTLLATYAWGQGTQVTVSS
In the case of B12, in experiment [4], the “IC50 (anthrax lethal toxin neutralization, RAW264.7 macrophages)” value is 0.2 nM. The same molecule yielded a Kd in experiment [1] of 0.2 nM. For the same molecule, the half-maximal effective concentration (EC50) in experiment [2] was found to be 0.1 nM.

B13: JKO-A4 (VHH)
VHH: QVQLAESGGGSVQPGGSLRLSCAASGFTFSSYTMSWVRQAPGKGIEWVSDINGGGDRTDYADSVKGRFTISRDNARNTLYLQMNSLQPEDTAVYYCAKDLSYVSGTYFANDWGQGTQVTVSS
With B13, the affinity in experiment [1], expressed as Kd, was 10 nM. Moreover, the concentration for a half-maximal effect (EC50) in experiment [2] was found to be 0.3 nM.

B14: JKH-D12 (VHH)
VHH: QVQLVETGGGLVQAGGTLRLSCAASGRTFTSYYIGWFRQEPGKEREFVASIGWTDDNTYYADSVKGRFTISRDNAETTAYLQMSGLKPEDTAVYYCAADYGSGIRAWYNWIYWGQGTQVTVSS
With B14, the dissociation constant Kd in experiment [1] was 1 nM. The response in experiment [2] was half-maximal at 0.3 nM (EC50).

B15: JHD-B6 (VHH)
VHH: QVQLVESGGGLVQPGGSLRLSCAASGSSFSRYAMRWYRQAPGKQRELVANINSRGTSNYADSVKGRFTISRDNAKNTVYLQMNSLKPEDTAVYYCNAEWLGRSEPSWGQGTQVTVSS
On to B15, for which the “IC50 (anthrax lethal toxin neutralization, RAW264.7 macrophages)” value in experiment [4] amounted to 10 nM. In experiment [2], this molecule gave an EC50 of 0.5 nM. The molecule also displayed an equilibrium dissociation constant (Kd) in experiment [3] of 66 nM.
